Three molecules from publication PMC9321427 can be followed below.

The target in one experiment is β-arrestin1-YFP (UniProt P49407). The experiment in a line: BRET (PAR2-Rluc8 / β-arrestin1-YFP) in cells. To be noted: read off a plot. In general terms: Bioluminescence resonance energy transfer reports proximity on the nanometre scale.

“PAR2-Rluc8 (protease-activated receptor 2 fused to Renilla luciferase 8), uncleaved as expressed (from UniProt P55085) Arg36Ala”: the response (ligand induced ΔBRET) with β-arrestin1-YFP (cells stimulated with GzmK (concentration not given for panel D), parent: est. 0.027) was 0.0038; with β-arrestin1-YFP (cells treated with GzmK-AI (inactive GzmK; concentration not given for panel D), parent: est. -0.001), -0.0015.

B1: Granzyme K (enzyme)
chain: IIGGKEVSPHSRPFMASIQYGGHHVCGGVLIDPQWVLTAAHCQYRFTKGQSPTVVLGAHSLSKNEASKQTLEIKKFIPFSRVTSDPQSNDIMLVKLQTAAKLNKHVKMLHIRSKTSLRSGTKCKVTGWGATDPDSLRPSDTLREVTVTVLSRKLCNSQSYYNGDPFITKDMVCAGDAKGQKDSCKGDSGGPLICKGVFHAIVSGGHECGVATKPGIYTLLTKKYQTWIKSNLVPPHTN
B1: in the experiment with PAR2 peptide 10 (human), the cleavage product as percent of total peptide by HPLC after 15 h with granzyme is 53 % of total.

B2: Granzyme A (enzyme)
chain: IIGGNEVTPHSRPYMVLLSLDRKTICAGALIAKDWVLTAAHCNLNKRSQVILGAHSITREEPTKQIMLVKKEFPYPCYDPATREGDLKLLQLMEKAKINKYVTILHLPKKGDDVKPGTMCQVAGWGRTHNSASWSDTLREVNITIIDRKVCNDRNHYNFNPVIGMNMVCAGSLRGGRDSCNGDSGSPLLCEGVFRGVTSFGLENKCGDPRGPGVYILLSKKHLNWIIMTIKGAV
Consider B2, for which, in the experiment with PAR2 peptide 10 (human), the cleavage product as percent of total peptide by HPLC after 15 h with granzyme is 6.6 % of total.
